Measured values: patent US20260167714A1 (COHERUS BIOSCIENCES, published 2026)
Blank lines part the entries; values can stand above or below the binder they belong to.

Assays:
[1] = target: T1, human ILT4 expressed on cells (human, UniProt Q8N423 22-597); assay: flow cytometry, blockade of PE-HLA-G tetramer binding to ILT4-CHO cells, Experiment 1
T1 construct: whole, on cells; The same entry is used for endogenous ILT4 of human macrophages; also called CHO-S/ILT4 cells; ILT4-CHO cells

[2] = target: T1, human ILT4 expressed on cells; assay: flow cytometry blocking assay: ILT4-expressing CHO cells preincubated with antibody, then PE-HLA-G; HLA-G binding MFI falls from about 105000 (no antibody) to near 0
Protocol: (§1) In the second blocking experiment, the primary antibody dilutions were made by diluting antibody to 15 μg/ml in FACS buffer. Three independent sets of eleven 2.5-fold serial dilutions were then made in FACS buffer from 15 μg/ml to 0.002 μg/ml. Each dilution set was handled independently, and 50 μl from each was added to cells in duplicate. Control wells received FACS buffer with no antibody. Wells were mixed and incubated for 30 minutes at 4 degrees C. Cells were washed twice in FACS buffer.
(§2) In both blocking experiments, phycoerythrin (PE)-conjugated HLA-G tetramer was diluted in FACS buffer to 5 μg/ml and 100 μl per well was added to cells. Cells were incubated at 4 degrees C. for 30 minutes, washed twice in FACS buffer, and resuspended in 250 μl FACS buffer with 0.1 μg/ml propidium iodide.
(§3) Cells were acquired on an Attune flow cytometer, with 5000 propidium iodide-negative cells collected per sample, and MFI was recorded. Relative blocking activity was calculated with the following formula: 100−(Sample MFI−Background MFI)/(Top MFI−Background MFI)*100. Prism software (Graphpad) was used to plot MFI and relative blocking activity for each sample. The blocking potency for each antibody, represented as IC₅₀, was calculated with Prism software.

[3] = target: T1, human ILT4 expressed on cells; assay: flow cytometry, blockade of PE-HLA-G tetramer binding to ILT4-CHO cells, Experiment 3
[4] = target: T1, human ILT4 expressed on cells; assay: flow cytometry, blockade of PE-HLA-G tetramer (5 µg/ml) binding to CHO-S/ILT4 cells, experiment 1
[5] = target: T1, human ILT4 expressed on cells; assay: flow cytometry on ILT4-CHO cells, unlabelled mAb titrated; competitor AF647-Hz156.03-LALA
Protocol: (§4) Competition binding assays were performed. […] Binding activities were measured by flow cytometry.
Anti-human ILT4 mAbs at various concentrations (0-15 μg/ml) were incubated with ILT4-CHO cells. Cells were washed and stained with AF647-Hz156.03-LALA. Cells were analyzed by flow cytometry.

[6] = target: T1, human ILT4 expressed on cells; assay: flow cytometry on ILT4-CHO cells, unlabelled mAb titrated; competitor AF647-Hz45.01-LALA
Protocol: as §4
Anti-human ILT4 mAbs at various concentrations (0-15 μg/ml) were incubated with ILT4-CHO cells. Cells were washed and stained with AF647-Hz45.01-LALA. Cells were analyzed by flow cytometry.

[7] = target: T2, recombinant human ILT4 (LILRB2) (human, UniProt Q8N423 22-460); assay: SPR, high resolution kinetics, triplicate; 95% CI in parentheses
T2 construct: Bought protein (Acro Biosystems or R&D Systems); also called ILTR4
T2 sequence (Q8N423 other isoform, or with tags, fused parts or gaps limits assumed): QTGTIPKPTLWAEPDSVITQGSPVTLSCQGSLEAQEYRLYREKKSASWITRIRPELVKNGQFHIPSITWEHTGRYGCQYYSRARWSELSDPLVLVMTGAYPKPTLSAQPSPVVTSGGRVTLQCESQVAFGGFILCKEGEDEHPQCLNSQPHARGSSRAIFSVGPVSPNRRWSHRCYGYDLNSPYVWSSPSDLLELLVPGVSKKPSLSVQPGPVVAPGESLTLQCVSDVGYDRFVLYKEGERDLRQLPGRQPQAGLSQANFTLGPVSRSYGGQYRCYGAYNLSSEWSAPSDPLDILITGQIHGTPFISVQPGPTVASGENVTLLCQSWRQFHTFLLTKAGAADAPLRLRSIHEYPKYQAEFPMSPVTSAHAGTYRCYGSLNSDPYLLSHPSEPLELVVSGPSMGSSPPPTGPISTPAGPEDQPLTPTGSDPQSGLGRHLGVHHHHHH

[8] = target: T1, human ILT4 expressed on cells; assay: cell-based or functional assay
[9] = target: T1, human ILT4 expressed on cells; assay: flow cytometry, blockade of PE-HLA-A tetramer (5 ug/ml) binding to ILT4-CHO cells, Experiment 3 (table title prints HLA-G)
[10] = target: T1, human ILT4 expressed on cells; assay: flow cytometry, blockade of PE-HLA-G tetramer (5 µg/ml) binding to CHO-S/ILT4 cells, experiment 2
Protocol: as §1, §2, §3

[11] = target: T1, human ILT4 expressed on cells; assay: flow cytometry, blockade of PE-HLA-A tetramer (5 ug/ml) binding to ILT4-CHO cells, Experiment 1 (table title prints HLA-G)
[12] = target: T1, human ILT4 expressed on cells; assay: cell-based or functional assay; remark: listed apart in the source
[13] = target: T1, human ILT4 expressed on cells; assay: flow cytometry, blockade of PE-HLA-G tetramer (5 µg/ml) binding to CHO-S/ILT4 cells, experiment 1; remark: listed apart in the source
[14] = target: T1, human ILT4 expressed on cells; assay: flow cytometry, blockade of PE-HLA-G tetramer binding to ILT4-CHO cells, Experiment 2
[15] = target: T2, recombinant human ILT4 (LILRB2); assay: SPR, high resolution kinetics, triplicate
[16] = target: T1, human ILT4 expressed on cells; assay: flow cytometry, blockade of PE-HLA-A tetramer (5 ug/ml) binding to ILT4-CHO cells, Experiment 2 (table title prints HLA-G)
[17] = target: T1, human ILT4 expressed on cells; assay: cell-based or functional assay; remark: listed apart in the source
[18] = target: T2, recombinant human ILT4 (LILRB2); assay: SPR, Biacore T200, mAb captured on anti-Fc, ILT4 injected, medium resolution, 25 C
Protocol: (§5) Label-free SPR analysis on a Biacore T200 instrument was utilized to measure antibody affinity to ILT4. CM4 sensor chips from Cytiva Inc. were utilized for all medium resolution analyses. Either anti-mouse Fc specific or anti-human Fc specific capture surfaces were prepared using standard amine coupling chemistry. Mouse, Chimera or Humanized mAbs were captured to their respective surfaces and ILT4 was injected across the surfaces from 101 nM to 0.79 nM in a 2-fold serial dilution series at a flow rate of 100 μL/min. The association phase was followed for 90 sec. while the dissociation phase was followed for 1200 sec. due to the medium resolution analysis implemented here. The sensorgrams were double-referenced and fit globally to a 1:1 interaction model with a term included for mass transport, and the equilibrium dissociation constant was calculated as KD=koff/kₒₙ. […] All kinetic experiments were performed at 25° C. in a buffer consisting of Hepes-buffered saline, pH 7.4, with 0.05% polysorbate 20 (HBS-P+) and 100 μg/ml Bovine Serum Albumin (BSA).

[19] = target: T2, recombinant human ILT4 (LILRB2); assay: SPR, Biacore T200, medium resolution; koff held at its limit of 4.27e-5 s^-1
Protocol: as §5

[20] = target: T2, recombinant human ILT4 (LILRB2); assay: SPR, Biacore T200, medium resolution; koff held at its limit of 4.27e-5 s^-1; koff held at the limit, 1200 s of dissociation
Protocol: as §5

T1 sequence (Q8N423 22-597): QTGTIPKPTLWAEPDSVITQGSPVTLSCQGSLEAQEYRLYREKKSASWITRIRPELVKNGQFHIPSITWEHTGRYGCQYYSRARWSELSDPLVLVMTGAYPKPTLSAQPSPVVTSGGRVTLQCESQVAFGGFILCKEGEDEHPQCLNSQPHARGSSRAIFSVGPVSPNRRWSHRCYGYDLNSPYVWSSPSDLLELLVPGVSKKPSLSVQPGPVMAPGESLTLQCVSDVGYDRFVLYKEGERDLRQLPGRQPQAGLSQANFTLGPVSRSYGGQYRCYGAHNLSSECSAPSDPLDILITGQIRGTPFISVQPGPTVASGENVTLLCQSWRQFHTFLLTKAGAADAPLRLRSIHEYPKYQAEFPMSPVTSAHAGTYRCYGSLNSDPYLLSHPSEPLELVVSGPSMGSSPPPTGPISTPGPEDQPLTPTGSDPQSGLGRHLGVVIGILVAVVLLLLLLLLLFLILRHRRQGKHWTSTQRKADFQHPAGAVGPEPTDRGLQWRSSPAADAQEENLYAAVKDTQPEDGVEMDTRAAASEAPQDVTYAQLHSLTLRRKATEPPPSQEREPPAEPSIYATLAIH

- IC50 [1]: 0.194 µg/mL
- IC50 [2]: 0.096 µg/mL
- IC50 [3]: 0.151 µg/mL
- IC50 [4]: 0.13 µg/mL
- IC50 [5]: 0.336 µg/mL
- IC50 [6]: 0.171 µg/mL
- kon [7]: 1.62e+06 M⁻¹ s⁻¹
- EC50 value of TNFa production, donor 4 [8]: 0.00877 µg/mL
- EC50 value of TNFa production, donor 5 [8]: 0.0235 µg/mL
- IC50 [9]: 0.0956 µg/mL
- IC50 [10]: 0.075 µg/mL
- IC50 [11]: 0.102 µg/mL
- EC50 value of IL-6 production, donor 4 [12]: 0.00374 µg/mL
- EC50 value of IL-6 production, donor 5 [12]: 0.0139 µg/mL
- fold decrease of PE-HLA-G MFI [13]: ≤ 30 fold
- IC50 [14]: 0.162 µg/mL
- Kd [15]: 5500 pM
- koff [15]: 0.00895 s⁻¹
- IC50 [16]: 0.107 µg/mL
B1: 1E1 (antibody, V domains shown)
VH: QVQLQQWGAGLLKPSETLSLTCAVYGGSFSGYYWSWIRQPPGKGLEWIGEINHSGSTNYNPSLKSRVTISVDTSKNQFSLKLSSVTAADTAVYYCARLPTRWVTTRYFDLWGRGTLVTVSS
VL: QSVLTQPPSVSGAPGQRVTISCTGSSSNIGAGYDVHWYQQLPGTAPKLLIYGNSNRPSGVPDRFSVSKSGASASLAITGLQAEDEADYYCQSFDNSLSAYVFGGGTQLTVL

- IL-6 secretion, fold over control, Donor A [17]: 3 fold
- IL-6 secretion, fold over control, Donor B [17]: 2 fold
- TNF-α secretion, fold over negative control [17]: 8 fold
- IC50 [2]: 0.233 µg/mL
- IC50 [4]: 0.13 µg/mL
- IC50 [5]: 0.0796 µg/mL
- IC50 [6]: 0.182 µg/mL
- kon [7]: 5.11e+06 M⁻¹ s⁻¹
- IC50 [10]: 0.216 µg/mL
- fold decrease of PE-HLA-G MFI [13]: ≤ 22 fold
- Kd [15]: 850 pM
- koff [15]: 0.00433 s⁻¹
B2: J19h1 (antibody, V domains shown)
VH: QITLKESGPTLVKPTQTLTLTCTFSGFSLNTYAMGVSWIRQPPGKALEWLASIWWNGNKYNNPSLKSRLTVTKDTSKNQVVLTMTNMDPVDTATYYCAHSRIIRFTDYVMDAWGQGTLVTVSS
VL: DIQMTQSPSSLSTSVGDRVTITCRASEDIYNDLAWYQQKPGKAPKLLIYNANSLHTGVASRFSGSGSGTDFTFTISSLQPEDVATYFCQQYYDYPLTFGQGTKLEIKR

- IL-6 secretion by LPS-stimulated M2 macrophages (MSD), fold over control [17]: 2 fold
- kon [18]: 269000 M⁻¹ s⁻¹
- IC50 [2]: 0.088 µg/mL
- Kd [19]: ≤ 160 pM
- IC50 [10]: 0.113 µg/mL
- koff [20]: ≤ 4.27e-05 s⁻¹
B3: L156S3 (antibody, IgG2a, V domains shown)
VH: QVQLKQSGAELVRPGASVKLSCRASGYTFTDYYMNWVKQRPGQGLEWIARIYPGVYRTHYNEKFKDKATLTAEKSSSTAYMELSSLTSEDSAVYFCARSGYYGGTYEEDAMDYWGQGTSVTVSS
VL: DIQMTQSPASLSVSVGETVTITCRASENIYSNLAWYQQKQGKSPQLLVYAATSLADGVPSRFRGSGSGTQYSLKISSLQSEDFGNYYCQNFWDTPYTFGGGTKLEIK
notes: also called mouse anti-human ILT4 antibody L156S3
